From patent publication US20150197757, “OXYGEN-RESPONSIVE BACTERIAL GENE SWITCH” (Wisconsin Alumni Research Foundation, published 2015)
Where a chain is given by its changes, count along the chain named.

Key:
ArcA (chromosomal) [1] = target: T1, ArcA (chromosomal) (Escherichia coli, UniProt P0A9Q1 P0A9Q1:1-238); assay: cell_activity; anaerobic lacZ fusion; repression largely relieved with O2
T1 sequence: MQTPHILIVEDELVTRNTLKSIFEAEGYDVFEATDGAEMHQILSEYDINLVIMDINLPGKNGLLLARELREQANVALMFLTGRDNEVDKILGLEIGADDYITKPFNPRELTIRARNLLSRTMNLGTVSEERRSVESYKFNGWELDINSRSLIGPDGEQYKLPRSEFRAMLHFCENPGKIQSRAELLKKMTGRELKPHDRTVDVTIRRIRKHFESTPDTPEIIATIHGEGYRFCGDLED
Protocol: (§1) Strains containing P1icdA-lacZ were grown in minimal media with 0.2% glucose. Fold repression was calculated by dividing the β-galactosidase activity of a ΔarcA strain (e.g., 803 Miller units for wt P1icdA-lacZ without O₂) by the activity of an arcA⁺ strain (e.g., 57 Miller units for wt P1icdA without O₂). The 10-bp DRs are indicated by open boxes with an X representing a DR element for which the repressive activity has been eliminated by mutation, and asterisks denoting DRs that have been mutated towards consensus (see FIG. 1C). (A) Effects of mutations away from consensus within each DR element, assayed under anaerobic conditions (—O₂). (B) The effect of mutations towards consensus within each DR element, assayed under anaerobic conditions. The dotted line represents anaerobic ArcA-dependent repression of wt P1icdA. (C) The effect of mutations towards consensus within each DR element, assayed under aerobic conditions. […]
(§2) β-galactosidase assays—All strains were grown in MOPS minimal medium (Neidhardt et al., 1974) with 0.2% glucose at 37° C. and sparged with a gas mix of 95% N₂ and 5% CO₂ (anaerobic) or 70% N₂, 5% CO₂, and 25% O₂ (aerobic). […] Standard errors for data plotted as ‘fold repression’ were calculated using a propagation of standard error formula (Ku, J. Res. National Bureau of Standards 70C:263-273 (1966)).

ArcA (chromosomal) [2] = target: T1, ArcA (chromosomal); assay: cell_activity; anaerobic; aerobic repression nearly the same, no longer O2 sensitive
Protocol: as §1, §2

ArcA (chromosomal) [3] = target: T1, ArcA (chromosomal); assay: cell_activity; anaerobic; aerobic about 2.5-fold repression
Protocol: as §1, §2

ArcA (chromosomal) [4] = target: T1, ArcA (chromosomal); assay: cell_activity; aerobic; anaerobic repression similar to consensus DR3 alone
Protocol: as §1, §2

ArcA (chromosomal) [5] = target: T1, ArcA (chromosomal); assay: cell_activity; anaerobic
Protocol: P1icdA expression in the construct with a fourth DR element was about 18% higher in a ΔarcA background compared to the other strains tested (data not shown).
How ArcA binding to each DR element contributes to icdA repression was determined by measuring β-galactosidase activity produced from P1icdA-lacZ transcriptional fusions containing the GT-to-CA (5′-TGTTA-3′ to 5′-TCATA-3′) (SEQ ID NO:2; SEQ ID NO:4, respectively) mutations within each DR element under anaerobic conditions. […] P1izcdA was repressed 14-fold by ArcA (FIG. 3A). […]
β-galactosidase assays—All strains were grown in MOPS minimal medium (Neidhardt et al., 1974) with 0.2% glucose at 37° C. and sparged with a gas mix of 95% N₂ and 5% CO₂ (anaerobic) or 70% N₂, 5% CO₂, and 25% O₂ (aerobic). […] To terminate cell growth and any further protein synthesis, chloramphenicol (final concentration, 20 μg/ml) or tetracycline (final concentration, 10 μg/ml) was added, and cells were placed on ice until assayed for β-galactosidase activity (Miller J H (1972) Experiments in molecular genetics. [Cold Spring Harbor, N.Y.]: Cold Spring Harbor Laboratory). β-Galactosidase assays were repeated at least three times and fold repression was calculated by dividing the β-galactosidase activity of a ΔarcA strain by the activity of an arcA⁺ strain. […]

ArcA (chromosomal) [6] = target: T1, ArcA (chromosomal); assay: cell_activity; anaerobic; remark: listed apart in the source
Protocol: as §1, §2

ArcA (chromosomal) [7] = target: T1, ArcA (chromosomal); assay: cell_activity; anaerobic; aerobic 7-fold repression
Protocol: as §1, §2

ArcA D54E = target: T2, ArcA D54E (Escherichia coli, UniProt P0A9Q1 P0A9Q1:1-238, D54E); assay: cell_activity; anaerobic; aerobic repression above wt ArcA
T2 sequence: T1 sequence with D54E
Description: To test whether the enhanced repression of P₁idcdA with mutant ArcA binding sites is still dependent on phosphorylation, the aspartate residue at position 54 (site of phosphorylation) in the chromosomal copy of arcA was mutated to yield either alanine or glutamate, preventing phosphorylation from ArcB. The D54A variant reduced the repression of all P1icdA-lacZ constructs compared to that with the wt protein under both aerobic and anaerobic growth conditions (FIG. 5A). […] Thus, the elevated aerobic repression with the strengthened ArcA binding sites appears to result from increased occupancy of the small amount of ArcA-P likely present during aerobic conditions.
as §2, with “(aerobic). Cells were harvested during mid-log growth (OD₆₀₀ of ˜0.3 on a Perkin Elmer Lambda 25 UV/Vis Spectrophotometer).” for “(aerobic).”

[8] = target: T3, ArcA-P (phosphorylated ArcA) (Escherichia coli, UniProt P0A9Q1 P0A9Q1:1-238); assay: footprint; all four DRs protected; apparent affinity higher than wt; narrow range (<4-fold) of ArcA-P; details: tags: His6 removed with TEV protease; phosphorylated with carbamyl phosphate; chain copies: 2 per two DR elements (inferred); label: 3' 32P (footprint)
T3 sequence: T1 sequence
Protocol: To determine whether adding a fourth DR element facilitates ArcA-P binding and increases the footprint length, a consensus DR element (5′-TGTTA-3′) (SEQ ID NO:2) was added at the same spacing (11 by center-to-center) to either the 3′ or the 5′ end of the three-DR ArcA binding site within the icdA promoter region and DNase I footprinting experiments were performed.
DNase I footprinting: icdA promoter fragments were isolated from pPK9476, pPK9477, pPK9908, pPK9909, pPK9913, pPK9914, and pPK15001 after digestion with XhoI and BamHI. Sequenase Version 2.0 (USB Scientific) was used to 3′ radiolabel the BamHI end of the fragment with [α-³²P]-dGTP (PerkinElmer). Labeled DNA fragments were isolated from a non-denaturing 5% acrylamide gel and were subsequently purified with Elutip-d™ columns (Schleicher and Schuell). ArcA was phosphorylated by incubating with 50 mM disodium carbamyl phosphate (Sigma Aldrich) in 50 mM Tris, pH 7.9, 150 mM NaCl, and 10 mM MgCl₂ for 1 hour at 30° C. (Lynch & Lin, J. Bacteria 178:6238-6249 (1996)) and immediately used in the binding assays. Footprinting assays were performed by incubating phosphorylated ArcA with labeled DNA (˜5 nM) for 10 minutes at 30° C. in 40 mM Tris (pH 7.9), 30 mM KCl, 100 μg/ml BSA and 1 mM DTT followed by the addition of 2 μg/ml DNase I (Worthington) for 30 seconds.

B1: icdA P1 wt (dsDNA)
DNA 1: AGAGCAATTTTTTGTTAATGATTTGTAATTGGCTTGTCAATACTACCCTATTGT
DNA 2: ACAATAGGGTAGTATTGACAAGCCAATTACAAATCATTAACAAAAAATTGCTCT
activity (ArcA (chromosomal) [1]): 14 fold repression

B2: icdA P1 5' DR4 (dsDNA)
DNA 1: B1 DNA 1 with G2T, A3G, G4T, C5T
DNA 2: B1 DNA 2 with G50A, C51A, T52C, C53A
activity (ArcA (chromosomal) [2]): 8 fold increase in repression vs wt

B3: icdA P1 DR2 A->T (dsDNA)
DNA 1: B1 DNA 1 with A27T
DNA 2: B1 DNA 2 with T28A
activity (ArcA (chromosomal) [3]): 3 fold increase in repression vs wt

B4: icdA P1 DR2 A->T, DR3 C->T (dsDNA)
DNA 1: B1 DNA 1 with A27T, C38T
DNA 2: B1 DNA 2 with G17A, T28A
activity (ArcA (chromosomal) [4]): 21 fold repression

B5: icdA P1 DR3 GT->CA (dsDNA)
DNA 1: B1 DNA 1 with G36C, T37A
DNA 2: B1 DNA 2 with A18T, C19G
activity (ArcA (chromosomal) [5]): ~3.5 fold loss in repression vs wt

B6: icdA P1 DR2 A->T, DR3 GT->CA (dsDNA)
DNA 1: B1 DNA 1 with A27T, G36C, T37A
DNA 2: B1 DNA 2 with A18T, C19G, T28A
activity (ArcA (chromosomal) [6]): 3 fold reduction in repression vs DR2 A->T

B7: icdA P1 DR3 C->T (dsDNA)
DNA 1: B1 DNA 1 with C38T
DNA 2: B1 DNA 2 with G17A
activity (ArcA (chromosomal) [7]): 6 fold increase in repression vs wt
activity (ArcA D54E): 2 fold reduction in repression vs wt ArcA

B8: icdA P1 3' DR4 (dsDNA)
DNA 1: B1 DNA 1 with C46T, C47G, C48T
DNA 2: B1 DNA 2 with G7A, G8C, G9A
binding result [8]: binds
